# Biological target: the molecule itself
# Assay: SEC
row,Molecule,stoichiometry N
1,GAS2-GAR domain (residues 198-314) (domain or fragment) STGNLLDDAVKRISEDPPCKCPTKFCVERLSQGRYRVGEKILFIRMLHNKHVMVRVGGGWETFAGYLLKHDPCRMLQISRVDGKTSPVQSKSPTLKDMNPDNYLVVSATYKAKKEIK,2

# Biological target: microtubules (polymerized porcine brain tubulin) (porcine) (UniProt Q2XVP4)
# Assay: co-sedimentation
row,Kd,Molecule
1,47 µM,GAS2-GAR R252E (from UniProt P11862 198-314) (domain or fragment)
2,5 µM,GAS2-GAR R242E (from UniProt P11862 198-314) (domain or fragment)
3,2.69 µM,GAS2-GAR G255A (from UniProt P11862 198-314) (domain or fragment)
4,9.6 µM,GAS2-GAR G255E (from UniProt P11862 198-314) (domain or fragment)
5,10.6 µM,GAS2-GAR K266E (from UniProt P11862 198-314) (domain or fragment)
6,27 µM,GAS2-GAR W257E (from UniProt P11862 198-314) (domain or fragment)
7,0.69 µM,GAS2-GAR domain (residues 198-314) (domain or fragment) STGNLLDDAVKRISEDPPCKCPTKFCVERLSQGRYRVGEKILFIRMLHNKHVMVRVGGGWETFAGYLLKHDPCRMLQISRVDGKTSPVQSKSPTLKDMNPDNYLVVSATYKAKKEIK

# From article doi:10.1101/2024.08.19.608523 (bioRxiv, 2024)
